{
  "source": "paper PMC9426602",
  "about": "“The Native Orthobunyavirus Ribonucleoprotein Possesses a Helical Architecture” (mBio, 2022)",
  "biological_target": "the molecule itself",
  "experiment": "negative staining EM; purified native RNPs, untreated, in reduced-salt TNE (25 mM NaCl), 1% uranyl acetate",
  "data": [
    {"protein": "Bunyamwera virus (BUNV) nucleocapsid protein (NP), as it stands in native ribonucleoproteins (RNPs) purified from virions (natural protein, the atomic model started from the BUNV NP crystal structure PDB 3ZLA; Many copies of NP form a helical filament around each RNA segment (about 3.4 NPs per turn); the number of copies depends on the segment; The viral RNA is part of the assembly; also called BUNV NP; source: native RNPs from BUNV virions grown in BHK-21 cells; virions disrupted by freeze/thaw, RNPs purified on a 10 to 25% OptiPrep …) MIELEFHDVAANTSSTFDPEVAYANFKRVHTTGLSYDHIRIFYIKGREIKTSLAKRSEWEVTLNLGGWKITVYNTNFPGNRNNPVPDDGLTLHRLSGFLARYLLEKMLKVSEPEKLIIKSKIINPLAEKNGITWNDGEEVYLSFFPGSEMFLGTFRFYPLAIGIYKVQRKEMEPKYLEKTMRQRYMGLEAATWTVSKLTEVQSALTVVSSLGWKKTNVSAAARDFLAKFGINM", "values": [
      {"measurement": "binding result", "result": "binds"}
    ]}
  ]
}
